Data published in paper PMC9408373, “CDC42-IQGAP Interactions Scrutinized: New Insights into the Binding Properties of the GAP-Related Domain” (International Journal of Molecular Sciences, 2022).

B1: human IQGAP2 C795 (aa 780-1575) (domain or fragment, UniProt Q13576 780-1575, looked up)
chain: PLTVIRKFVYLLDQSDLDFQEELEVARLREEVVTKIRANQQLEKDLNLMDIKIGLLVKNRITLEDVISHSKKLNKKKGGEMEILNNTDNQGIKSLSKERRKTLETYQQLFYLLQTNPLYLAKLIFQMPQNKSTKFMDTVIFTLYNYASNQREEYLLLKLFKTALEEEIKSKVDQVQDIVTGNPTVIKMVVSFNRGARGQNTLRQLLAPVVKEIIDDKSLIINTNPVEVYKAWVNQLETQTGEASKLPYDVTTEQALTYPEVKNKLEASIENLRRVTDKVLNSIISSLDLLPYGLRYIAKVLKNSIHEKFPDATEDELLKIVGNLLYYRYMNPAIVAPDGFDIIDMTAGGQINSDQRRNLGSVAKVLQHAASNKLFEGENEHLSSMNNYLSETYQEFRKYFKEACNVPEPEEKFNMDKYTDLVTVSKPVIYISIEEIISTHSLLLEHQDAIAPEKNDLLSELLGSLGEVPTVESFLGEGAVDPNDPNKANTLSQLSKTEISLVLTSKYDIEDGEAIDSRSLMIKTKKLIIDVIRNQPGNTLTEILETPATAQQEVDHATDMVSRAMIDSRTPEEMKHSQSMIEDAQLPLEQKKRKIQRNLRTLEQTGHVSSENKYQDILNEIAKDIRNQRIYRKLRKAELAKLQQTLNALNKKAAFYEEQINYYDTYIKTCLDNLKRKNTRRSIKLDGKGEPKGAKRAKPVKYTAAKLHEKGVLLDIDDLQTNQFKNVTFDIIATEDVGIFDVRSKFLGVEMEKVQLNIQDLLQMQYEGVAVMKMFDKVKVNVNLLIYLLNKKFYGK
notes: source: E. coli, purified (glutathione Sepharose), GST cleaved with thrombin; not shown: GST, N-terminal, cleaved
B2: human IQGAP1 GRD1 (aa 962-1345) (domain or fragment, UniProt P46940 962-1345, looked up)
chain: SKEKREKLEAYQHLFYLLQTNPTYLAKLIFQMPQNKSTKFMDSVIFTLYNYASNQREEYLLLRLFKTALQEEIKSKVDQIQEIVTGNPTVIKMVVSFNRGARGQNALRQILAPVVKEIMDDKSLNIKTDPVDIYKSWVNQMESQTGEASKLPYDVTPEQALAHEEVKTRLDSSIRNMRAVTDKFLSAIVSSVDKIPYGMRFIAKVLKDSLHEKFPDAGEDELLKIIGNLLYYRYMNPAIVAPDAFDIIDLSAGGQLTTDQRRNLGSIAKMLQHAASNKMFLGDNAHLSIINEYLSQSYQKFRRFFQTACDVPELQDKFNVDEYSDLVTLTKPVIYISIGEIINTHTLLLDHQDAIAPEHNDPIHELLDDLGEVPTIESLIGESS
notes: as for B1
B3: human IQGAP1 C794 (aa 863-1657) (domain or fragment, UniProt P46940 863-1657, looked up)
chain: DPPMVVVRKFVHLLDQSDQDFQEELDLMKMREEVITLIRSNQQLENDLNLMDIKIGLLVKNKITLQDVVSHSKKLTKKNKEQLSDMMMINKQKGGLKALSKEKREKLEAYQHLFYLLQTNPTYLAKLIFQMPQNKSTKFMDSVIFTLYNYASNQREEYLLLRLFKTALQEEIKSKVDQIQEIVTGNPTVIKMVVSFNRGARGQNALRQILAPVVKEIMDDKSLNIKTDPVDIYKSWVNQMESQTGEASKLPYDVTPEQALAHEEVKTRLDSSIRNMRAVTDKFLSAIVSSVDKIPYGMRFIAKVLKDSLHEKFPDAGEDELLKIIGNLLYYRYMNPAIVAPDAFDIIDLSAGGQLTTDQRRNLGSIAKMLQHAASNKMFLGDNAHLSIINEYLSQSYQKFRRFFQTACDVPELQDKFNVDEYSDLVTLTKPVIYISIGEIINTHTLLLDHQDAIAPEHNDPIHELLDDLGEVPTIESLIGESSGNLNDPNKEALAKTEVSLTLTNKFDVPGDENAEMDARTILLNTKRLIVDVIRFQPGETLTEILETPATSEQEAEHQRAMQRRAIRDAKTPDKMKKSKSVKEDSNLTLQEKKEKIQTGLKKLTELGTVDPKNKYQELINDIARDIRNQRRYRQRRKAELVKLQQTYAALNSKATFYGEQVDYYKSYIKTCLDNLASKGKVSKKPREMKGKKSKKISLKYTAARLHEKGVLLEIEDLQVNQFKNVIFEISPTEEVGDFEVKAKFMGVQMETFMLHYQDLLQLQYEGVAVMKLFDRAKVNVNLLIFLLNKKFYGK
notes: as for B1
B4: human CDC42 (aa 1-178), wild type (natural protein)
chain: not shown
notes: Loaded with mant-GppNHp or mant-GDP (fluorescence assays) or GppNHp (SEC); also called CDC42 WT; CDC42^wt; source: E. coli, purified (glutathione Sepharose), GST cleaved with thrombin; not shown: GST, N-terminal, cleaved
B5: human CDC42 (aa 1-178) Q61L (natural protein)
chain: not shown
notes: also called CDC42^Q61L; CDC42(Q61L); source: E. coli, purified (glutathione Sepharose), GST cleaved with thrombin; not shown: GST, N-terminal, cleaved

Columns and labels:
Conditions in all cases: both partners purified
[1] = molecular target: B4; assay: fluorescence polarisation; 1 µM mant-GDP-bound CDC42 in the cuvette, IQGAP protein titrated; quadratic ligand binding equation
[2] = molecular target: B4; assay: SEC; GppNHp-bound CDC42 mixed with IQGAP1 GRD1; Superdex 200 10/300, 30 mM Tris/HCl pH 7.5, 150 mM NaCl, 5 mM MgCl2; stoichiometry from calibrated elution volumes
[3] = molecular target: B5; assay: as above
[4] = molecular target: T1, human IQGAP2 GRD2 (aa 875-1246) (human, UniProt Q13576 875-1246); assay: fluorescence polarisation; 1 µM mant-GppNHp-bound CDC42 in the cuvette, IQGAP protein titrated; quadratic ligand binding equation
T1 construct: source: E. coli, purified (glutathione Sepharose), GST cleaved with thrombin; not shown: GST, N-terminal, cleaved
T1 sequence (looked up): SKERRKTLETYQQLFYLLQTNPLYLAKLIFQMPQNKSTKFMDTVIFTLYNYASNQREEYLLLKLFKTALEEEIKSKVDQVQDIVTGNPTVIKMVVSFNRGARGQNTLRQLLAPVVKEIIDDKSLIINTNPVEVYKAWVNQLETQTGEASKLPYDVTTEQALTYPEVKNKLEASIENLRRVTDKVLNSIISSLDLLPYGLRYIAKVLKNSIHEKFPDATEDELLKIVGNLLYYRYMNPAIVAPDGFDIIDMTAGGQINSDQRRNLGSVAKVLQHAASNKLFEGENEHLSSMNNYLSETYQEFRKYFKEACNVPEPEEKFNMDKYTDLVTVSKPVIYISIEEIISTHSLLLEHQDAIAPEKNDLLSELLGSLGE

[5] = molecular target: B1; assay: as above
[6] = molecular target: B2; assay: as above
[7] = molecular target: B3; assay: as above

| Binder | fold higher affinity for mGppNHp-bound than for mGDP-bound CDC42 [1] [fold] | Kd [4] [nM] | Kd [6] [nM] | further results |
| --- | --- | --- | --- | --- |
| B1 | ~100 |  |  |  |
| B2 |  |  |  | stoichiometry N [2]: 1 GRD1 per CDC42 (2:2); stoichiometry N [3]: 2 ratio 2:1 as printed (which partner is the 2 is not told) |
| B3 | ~100 |  |  |  |
| B4 |  | 69000 | 186000 | Kd [5]: 900 nM; Kd [7]: 600 nM |
| B5 |  | 2500 | 2700 |  |
